The test deals with recombinant human IGF-1R on I24 cells (human) (UniProt P08069). As to the kind of experiment: cellular FACS IGF-1R-ANGPT2 bridging assay: I24 cells + hIgG isotype, then 2 µg/mL hANGPT2, <ANGPT2>mIgG1-Biotin and Streptavidin-PE; negative control; untreated I24 cells (panel A): Mean 5.01.

As for hIgG Isotype (antibody), the Mean (FL2-H fluorescence) stood at 8.76.

The values above are taken from US20090162360A1.
